Experimental data reported in CN117088975A.

Biological target: ALB蛋白(天然提取)
Experiment: AMC sensor, antibody immobilised at 10 ug/ml, ALB in gradient dilution in PBST

Substance 对照 (antibody) has a Kd of 32.4 nM, a koff of 0.000483 s⁻¹ and a kon of 14900 M⁻¹ s⁻¹.
